Data as given in the nanobody polyreactivity screen of Harvey et al. (2022).

assay: yeast display, Sf9 membrane polyspecificity reagent, FACS + sequencing; frameworks hold sequencing errors
Procedure, shortened: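 After 36–48 hours of galactose induction, yeast (Saccharomyces cerevisiae BJ5465) displaying a synthetic nanobody library were stained at 4 °C for 1 hour with 10% biotinylated, detergent-solubilized Sf9 membrane reagent. Streptavidin microbeads enriched the stained cells before FACS sorting into low and high (top ~1%) gates on anti-HA and streptavidin fluorescence. Each clone's polyreactivity label reflects its gate of origin.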

Sequence | polyreactivity (PSR sort gate)
QVQLVESGGGLVQAGGSLRLSCAASGFIFSYYAMGWYRQAPGKERELVAVISWSGGSTYYADSVKGRFTISRDNAKNTVYLQMNSLKPEDTAVYYCNAGYTYNRVIWPYYYWGQGTQVTVSS | high polyreactivity
QVQLVESGGGLVQAGGSLRLSCAASGRIFRWYAMGWYRQAPGKERELVAAISKSGGTTNYADSVKGRFTISRDNAKNTVYLQMNSLKPEDTAVYYCAARRYPYGGYGYRYDYWGQGTQVTVSS | high polyreactivity
QVQLVESGGGLVQAGGSLRLSCAASGRTSDINTMGWYRQAPGKERELVAAISDSDGTTYYADSVKGRFTISRDNAKNTVYLQMNSLKPDDTAVYYCAAERATVKFGYWGQGTQVTVSS | low polyreactivity
QVQLVESGGGLVQAGGSLRLSCAASGRTFSRYAMGWYRQAPGKERELVAAITYSGGRTYYADSVKGRFTISRDNAKNTVYLQMNSLKPEDTAVYYCAKGTTSDPGYGYWGQGTQVTVSS | low polyreactivity
QVQLVESGGGLVQAGGSLRLSCAASGYTFRTNVMGWYRPAPGKVWELVATINWRGGSTYYADSVKGRFTISRDNAKNTVYLQMNSLKPEDTAVYYCAKSYRYYRTMDYWGQGTQVTVSS | low polyreactivity
QVQHVESGGGLVQAGGSLRLSCAASGSIFTSYAMGWSSQAPGKERELVAAITSTGGSTYYADSVKGRFTISRDNAKNTVYLQMNSLKPEDTAVYYCNADGGTPYDYWGQGTQVTVSS | low polyreactivity
QVQLVESGGGLVQAGGSLRLSCAASGRIFRDYSMGWYRQAPGKETELVATITWSGATTYYADSVKGRFTISRDNAKNTVYLQMNSLKPEDTAVYYCNTDTDVDVAFDSWGQGTQVTVSS | low polyreactivity
QVQLVESGGGLVQAGGTLPLSCAASGFTVRSYAMGWYRQAPGEEREIVAAISRLGDSTYFADSVKGRFTISRDNAKNTVYLQMYSLITEDTAVYYCAKYGIASRFSRFDSWGQGTQVTVSS | high polyreactivity
QVELVESGGALVQAGGSLSLSCAASGIIFSIYAMGWDRQAPGKERELVAAITYSGGRTYYADSVKGRFTISRDNAKNTVYLQMNSLKPEDTAVYYCAAVGYGEYYWGQGTQVTVSS | high polyreactivity
QVQLVESGGGLVQAGGSLRLSCAASGFTFKGNAMGWKRPAPGKERELVAGISRSGRTYYADSVKGRFTISRDNAKNTVYLQMNSLKPEDTAVYYCNVVYTYWRYYRWREYDYWGQGTQVTVSS | high polyreactivity
QVQLVESGGGLVQAGRSLRLSCPASGSIFIIYAMGWYRQQPGKERELVAAISASGGITYYADSVKGRFTISRDNAKNTVYLQMNRLKPEDTAVYYCAARRYRYFWVPRPYDYWGQGTQVTVSS | high polyreactivity
QVQLQESRGGLVQAGGSLRLSCAATGTIFTDRIMGWYLQAPGKERELVAGISPGTSTNYADSVKGRFTISRDNEKNTVYLQMNSLKPEDTAVYYCAADWSTGNTLPYWGQGSQVTVSS | high polyreactivity
QVQLVESGGGLVQAGGSLRLSCAASGFTFDPYAMGWYRQAPGKERELVAAIDYSGGTTYYADSVKGRFTISRDNAKNTVYLQMNSLKPEDTAVYYCAAEYTYYHWWGYDYWGQGTQVTVSS | high polyreactivity
QVQLVESGGGLVQAGGSLRLSCAASGSILKYYAMGWYRQAPGKERELLAAISWSGGRTYYADSVKGRFTISRDNAKNTVYLQMNSLKPEDTAVYYCAAENYGSGSWHGPEYDYWGQGTQVTVSS | low polyreactivity
QVQLQERGGGLVQTGGSLSLSCEASGTISYSDSMCWYRQAPRKERELVAAIARGGITNYAYSVKGRFTISRDNAKNTVYLQMNSLKPEDTAVYYCADLSSRYAQFDYWGQGTQVTVSS | low polyreactivity
QVQLVESGGGLVQAGGSLRLSCAASGITIVNYVMGWYRKAPGKERELVAAISIGGGTYYADSVKGRFTISRDNAKNTVYLQINSLKPEDTAVYYCNASYGGLSFYIGVYVTGYDYWGQGTQVTVSS | low polyreactivity

Sequence | polyreactivity (PSR sort gate)
QVQLVESGGGLVQAGGSLRLSCAASGSIFKIYAMGWYRQAPGKERELVASITGSGGSTYYADSVKGRFTISRDNAKNTVYLQMNSLKPEDTAVYYCIADGPLDRYEYWGQGTQVTVSS | low polyreactivity
QVQLVESGGGLVQAGGSLRLSCADSGRTFFYNGMGWYRQAPGKERELVAAISGSGSRTYYADSVKGRFTISRDNAKNTVYLQMNSLKPEDTAVYYCAATRVISHYRFDYWGQGTQVTVSS | high polyreactivity
QVQLVESGGGLVQAGGSLRLSCAASGSTFRVYAMGWYRQATGKERELVAAIRWRGVTTYADSVKGRFTISRDNAKNTVYLQMNSLKPEDTAVYYCARDVNYPGSEGDYWGQGTQVTVSS | low polyreactivity
QVQLVESGGGLVLAGGSLRLSCAASGSISTNYAMGWYRQAPGKERELVAAISDSSGSTYYADSVKGRFTISRDNAKNIVYLQMNSLKPEDTAVYYCNADSQGGRDVNYDYEYYYWGQGTQVTVSS | low polyreactivity
QVQLVESGGGLVQAGGSLRLSCAASGSTFPRYAMGWYRQAPGKERELVAAISRSGTTTYYADSVKGRFTISRDNAKNTVYLQMNSLKPEDTAVYYCAKRHYARYDYWGQGTQVTVSS | high polyreactivity
QVQLVESGGGLVQAGGSLRLSCAASGSIFSGYAMGWYRQAPGKERELVAAITWRAASTYYADSVKGRFTISRDNAKNTVYLQMNSLKPEDTAVYYCAKEGGPKPAFYYWGQGTQVTVSS | low polyreactivity
QVQLVESGGGLVQAGGSLRLSCAASGSINYYAMGWYRQAPVKERELVAAITRSGGGTYYADSVKGRFTISRDNAMNTVYLQMNSLIPEDTAVYYCAAARYSRAQPNWTYNYWGQGTQVTVSS | high polyreactivity
QVQLVESGGGLVQAGGSLRLSCAASGSTFWKYAMGWYRQAPGKEREFVAAITRSGGNTYYADSVKGRFTISRDNAKNTVYLQMNSLKPEDTALYYCAIVYKLITSYRGFGYWGQGTQVTVSS | high polyreactivity
QVKLVESGGGLVQAGGSLRLSCAASGFTIRSYVMGWYRQAPGKERELVAAIRRSGGSTYYADSVKGRFTISRDNAKNTVYFQMNSLKREDTAVYYCAAYIWWRDYIEFDYWGQGTQVTVSS | high polyreactivity
QVQLVESGGGLVQAGGSLRISCAASAITFEPYAMGWYRQAPGTEREFVAAISRSGGSTYYADSVKGRFTISRDNAKNTVYLQMNSLKPEDTAVYYCAADSWIGPDYGHDYRGQGTQVTVSS | high polyreactivity
QVQLVESGGGLVQAGGRLRLSCAASGRTFKDYAMGWYRQAPGKERELVAGINGSGGSTYYADSVKGRFTISRDNAKNTVYLQMNSLKPEDTAVYYCNADFGYWWDGRRYDYWGQGTQVTVSS | low polyreactivity
QVQLVESGGGLVQAGGSLRLSCAASGRTFSVNDMGWYRQAPGKERELVAAISFSGGSTYYADSVKGRFTISRDNAKNTVYLQMNSLKPEDTAVYYCAAEAYPSWFYVITGFGIYDYWGQGTQVTVSS | high polyreactivity
QVQLEESGGGLVQAGGSLRLSCAASGSTFYAYAMGWYRQAPGKERELVAAIDSGGSTYYADSVKGRFTSSRDNAKNTVYLQMNSLKPEDTAVYYCAVRHRYTRAFWGRDYWGQGTQVTVSS | low polyreactivity
QVQLVESGGGLVQAGGSLRLSCAASGRTFYVYAMGWYRQAPGKERELVATITSRGGRTYYADSVKGRFTISRDNAKNTVYLQMNSLKPEDTAVDYCNAAWWKVSYVRQKYFYWGQGTQVTVSS | high polyreactivity
QVQLVESGGGLVQAGGSLRLSCAASGSIFSSYAMGWYRQAPGKERELVAAITSGGSTYYADSVKGRFTISRDNAKNNVYLQMNSLKPEDTAVYYCAARQVRTSKLHMGYWGQGTQVTVSS | low polyreactivity
QVQLVESGGGLVQAGGSLRLSCAASGSIFGYNTMGWYRQAPGKERELVAAISYSGGRTYYADSVKGRFTISRDNAKNTVYVQMNSLKPEDTAVYYCAADFYFRRGTDYDYWGQGTQVTVSS | high polyreactivity
